Data from PMC8771830, “Multimerization of the GATA4 transcription factor regulates transcriptional activity and cardiomyocyte hypertrophic response” (International Journal of Biological Sciences, 2022).

Target: the molecule itself
Assay: SEC; purified GATA4 on Superdex200 Increase 10/300 GL in 20 mM HEPES-NaOH pH 7.4, 100 mM NaCl; fractions blotted with anti-GATA4

B1: Full length GATA4 produced by E. coli (natural protein)
chain: not shown
notes: GATA4, full length; also called purified GATA4; recombinant GATA4; source: E. coli BL21 DE3, purified (Glutathione-Sepharose 4B, GST removed with HRV3C protease)
  stoichiometry N: ~8
